Results from patent US9717715B2, “Method of combination therapy using an anti-C-Met antibody” (SAMSUNG ELECTRONICS CO., LTD., dated 2017).

Tests used:
[1] = target: c-Met on human cancer cells (human, UniProt P08581); experiment: cell-based or functional assay
human c-Met protein [2] = target: T1, human c-Met protein (human, UniProt P08581); experiment: SPR (Biacore), antibody immobilised on CM5 chip, human c-Met protein injected at 0.39-100 nM
human c-Met protein [3] = target: T1, human c-Met protein; experiment: SPR (Biacore), by the method of Example 8

Binder	Akt phosphorylation (%) in Caki-1 cells, 5 ug/ml, 30 min [1]	Kd (human c-Met protein [2])	koff (human c-Met protein [2])	kon (human c-Met protein [2])	Kd (human c-Met protein [3])	relative cell viability (%) of MKN45 cells, 72 h [1]
huAbF46-H4-A1 (IgG2 hinge) (antibody) heavy: not shown light: DIQMTQSPSSLSASVGDRVTITCKSSQSLLASGNQNNYLAWYQQKPGKAPKMLIIWASTRVSGVPSRFSGSGSGTDFTLTISSLQPEDFATYYCQQSYSRPYTFGQGTKVEIKRTVAAPSVFIFPPSDEQLKSGTASVVCLLNNFYPREAKVQWKVDNALQSGNSQESVTEQDSKDSTYSLSSTLTLSKADYEKHKVYACEVTHQGLSSPVTKSFNRGEC	≤ 18%	–	–	–	–	~60%
huAbF46-H4-A1 (IgG2 Fc) (antibody) heavy: EVQLVESGGGLVQPGGSLRLSCAASGFTFTDYYMSWVRQAPGKGLEWLGFIRNKANGYTTEYSASVKGRFTISRDNSKNTLYLQMNSLRAEDTAVYYCARDNWFAYWGQGTLVTVSSASTKGPSVFPLAPCSRSTSESTAALGCLVKDYFPEPVTVSWNSGALTSGVHTFPAVLQSSGLYSLSSVVTVPSSNFGTQTYTCNVDHKPSNTKVDKTVERKCCVECPPCPAPPVAGPSVFLFPPKPKDTLMISRTPEVTCVVVDVSHEDPEVQFNWYVDGVEVHNAKTKPREEQFNSTFRVVSVLTVVHQDWLNGKEYKCKVSNKGLPAPIEKTISKTKGQPREPQVYTLPPSREEMTKNQVSLTCLVKGFYPSDIAVEWESNGQPENNYKTTPPMLDSDGSFFLYSKLTVDKSRWQQGNVFSCSVMHEALHNHYTQKSLSLSPGK light: DIQMTQSPSSLSASVGDRVTITCKSSQSLLASGNQNNYLAWYQQKPGKAPKMLIIWASTRVSGVPSRFSGSGSGTDFTLTISSLQPEDFATYYCQQSYSRPYTFGQGTKVEIKRTVAAPSVFIFPPSDEQLKSGTASVVCLLNNFYPREAKVQWKVDNALQSGNSQESVTEQDSKDSTYSLSSTLTLSKADYEKHKVYACEVTHQGLSSPVTKSFNRGEC	≤ 18%	–	–	–	–	~60%
L3-11Y (antibody, V domains shown) VH: EVQLVESGGGLVQPGGSLRLSCAASGFTFTDYYMSWVRQAPGKGLEWLGFIRNKANGYTTEYSASVKGRFTISRDNSKNTLYLQMNSLRAEDTAVYYCARDNWFAYWGQGTLVTVSS VL: DIQMTQSPSSLSASVGDRVTITCKSSQSLLAWGNQNNYLAWYQQKPGKAPKMLIIWASTRVSGVPSRFSGSGSGTDFTLTISSLQPEDFATYYCQQSYSRPYTFGQGTKVEIKR	–	–	–	–	< 0.01 nM	–
huAbF46-H4-A1 (antibody, V domains shown) VH: EVQLVESGGGLVQPGGSLRLSCAASGFTFTDYYMSWVRQAPGKGLEWLGFIRNKANGYTTEYSASVKGRFTISRDNSKNTLYLQMNSLRAEDTAVYYCARDNWFAYWGQGTLVTVSS VL: DIQMTQSPSSLSASVGDRVTITCKSSQSLLASGNQNNYLAWHQQKPGKAPKMLIIWASTRVSGVPSRFSGSGSGTDFTLTISSLQPEDFATYYCQQSYSRPYTFGQGTKVEIKR	15.3%	0.06 nM	4.53e-05 s⁻¹	739000 M⁻¹ s⁻¹	–	74%

More lines, main results first:

Akt phosphorylation (%) in Caki-1 cells, 5 ug/ml, 30 min [1]	Kd (human c-Met protein [2])	koff (human c-Met protein [2])	kon (human c-Met protein [2])	Kd (human c-Met protein [3])	Binder	relative cell viability (%) of MKN45 cells, 72 h [1]
≤ 18%	–	–	–	–	huAbF46-H4-A1 (U6-HC7) (antibody) heavy: not shown light: DIQMTQSPSSLSASVGDRVTITCKSSQSLLASGNQNNYLAWYQQKPGKAPKMLIIWASTRVSGVPSRFSGSGSGTDFTLTISSLQPEDFATYYCQQSYSRPYTFGQGTKVEIKRTVAAPSVFIFPPSDEQLKSGTASVVCLLNNFYPREAKVQWKVDNALQSGNSQESVTEQDSKDSTYSLSSTLTLSKADYEKHKVYACEVTHQGLSSPVTKSFNRGEC	~60%
29.1%	2.19 nM	0.000723 s⁻¹	329000 M⁻¹ s⁻¹	–	humanized antibody huAbF46 (H4-heavy chain and H4-light chain) (antibody, V domains shown) VH: EVQLVESGGGLVQPGGSLRLSCAASGFTFTDYYMSWVRQAPGKGLEWLGFIRNKANGYTTEYSASVKGRFTISRDNSKNTLYLQMNSLRAEDTAVYYCARDNWFAYWGQGTLVTVSS VL: DIQMTQSPSSLSASVGDRVTITCKSSQSLLASGNQNNYLAWHQQKPGKAPKMLIIWASTRVSGVPSRFSGSGSGTDFTLTISSLQPEDFATYYCQQSYSAPLTFGQGTKVEIKR	77%
